Laboratory results from PMC6692331.

Experiments:
[1] = molecular target: humanized Archaeoglobus ferritin (HumFt) (Archaeoglobus fulgidus | human); assay: SEC; HP-SEC with UV (220, 410 nm) and fluorimetric detection; ferritin dissociated without MgCl2, mixed with a 20 fold molar excess of Cyt C, re-assembled with 50 mM MgCl2; mobile phase 20 mM HEPES pH 7.4, 50 mM MgCl2; Cyt C signal at the retention time of the ferritin 24-mer (encapsulation in the cavity)
[2] = molecular target: carboxymethylated humanized ferritin (S-CMHumFt) (Archaeoglobus fulgidus | human); assay: as above

stoichiometry N [1]: 0.43 Cyt C:HumFt | stoichiometry N [2]: 1.4 Cyt C:HumFt
Substance: cytochrome C from equine heart (from UniProt P00004 1-105) (natural protein)
